Reference: PMC4357707 (Nucleic Acids Research, 2015)

Key:
HEN1-RHK389,397,477AAA [1] = biological target: T1, HEN1-RHK389,397,477AAA (Arabidopsis thaliana, UniProt Q9C5Q8 1-942, R389A;H397A;K477A); experiment: EMSA
T1 sequence: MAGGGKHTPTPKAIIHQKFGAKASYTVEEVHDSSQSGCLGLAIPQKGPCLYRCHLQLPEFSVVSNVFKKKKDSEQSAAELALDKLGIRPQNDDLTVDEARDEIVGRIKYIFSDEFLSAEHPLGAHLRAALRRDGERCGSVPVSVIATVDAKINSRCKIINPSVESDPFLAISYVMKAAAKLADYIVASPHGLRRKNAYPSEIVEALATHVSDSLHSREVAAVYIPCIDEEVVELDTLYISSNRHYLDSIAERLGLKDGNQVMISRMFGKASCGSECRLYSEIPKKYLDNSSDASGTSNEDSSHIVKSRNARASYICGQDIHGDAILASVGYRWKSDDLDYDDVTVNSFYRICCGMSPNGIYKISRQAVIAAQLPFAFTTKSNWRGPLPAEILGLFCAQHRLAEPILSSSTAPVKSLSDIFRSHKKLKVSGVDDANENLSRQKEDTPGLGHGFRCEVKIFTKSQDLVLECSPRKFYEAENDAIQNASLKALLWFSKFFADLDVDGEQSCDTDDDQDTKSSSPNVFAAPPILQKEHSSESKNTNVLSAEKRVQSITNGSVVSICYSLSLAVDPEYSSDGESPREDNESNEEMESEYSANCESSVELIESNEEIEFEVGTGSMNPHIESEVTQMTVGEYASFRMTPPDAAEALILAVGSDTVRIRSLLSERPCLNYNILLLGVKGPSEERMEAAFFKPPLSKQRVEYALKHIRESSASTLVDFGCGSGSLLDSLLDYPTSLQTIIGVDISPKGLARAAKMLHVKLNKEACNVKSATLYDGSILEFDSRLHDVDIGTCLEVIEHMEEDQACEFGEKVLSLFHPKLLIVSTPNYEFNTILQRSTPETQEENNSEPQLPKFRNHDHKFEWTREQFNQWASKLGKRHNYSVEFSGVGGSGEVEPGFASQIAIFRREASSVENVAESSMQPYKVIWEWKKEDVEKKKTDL

HYL1 = biological target: T2, HYL1 (Arabidopsis thaliana, UniProt O04492 1-419); experiment: EMSA
T2 sequence: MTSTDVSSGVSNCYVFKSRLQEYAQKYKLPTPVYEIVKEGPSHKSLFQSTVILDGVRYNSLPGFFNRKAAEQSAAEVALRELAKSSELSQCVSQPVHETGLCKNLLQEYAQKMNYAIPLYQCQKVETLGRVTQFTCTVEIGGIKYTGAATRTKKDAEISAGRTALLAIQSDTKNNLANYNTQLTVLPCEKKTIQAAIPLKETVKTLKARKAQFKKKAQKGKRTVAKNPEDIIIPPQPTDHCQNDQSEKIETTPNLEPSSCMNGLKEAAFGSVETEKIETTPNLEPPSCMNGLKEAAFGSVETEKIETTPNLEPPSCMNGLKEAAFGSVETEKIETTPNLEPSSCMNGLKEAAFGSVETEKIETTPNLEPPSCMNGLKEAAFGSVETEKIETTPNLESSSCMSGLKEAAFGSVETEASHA

HEN1 wt;HYL1 = biological target: T3, HEN1 wt;HYL1 (Arabidopsis thaliana;Arabidopsis …, UniProt Q9C5Q8;O04492 1-942;1-419, |); experiment: EMSA
T3 sequence 1: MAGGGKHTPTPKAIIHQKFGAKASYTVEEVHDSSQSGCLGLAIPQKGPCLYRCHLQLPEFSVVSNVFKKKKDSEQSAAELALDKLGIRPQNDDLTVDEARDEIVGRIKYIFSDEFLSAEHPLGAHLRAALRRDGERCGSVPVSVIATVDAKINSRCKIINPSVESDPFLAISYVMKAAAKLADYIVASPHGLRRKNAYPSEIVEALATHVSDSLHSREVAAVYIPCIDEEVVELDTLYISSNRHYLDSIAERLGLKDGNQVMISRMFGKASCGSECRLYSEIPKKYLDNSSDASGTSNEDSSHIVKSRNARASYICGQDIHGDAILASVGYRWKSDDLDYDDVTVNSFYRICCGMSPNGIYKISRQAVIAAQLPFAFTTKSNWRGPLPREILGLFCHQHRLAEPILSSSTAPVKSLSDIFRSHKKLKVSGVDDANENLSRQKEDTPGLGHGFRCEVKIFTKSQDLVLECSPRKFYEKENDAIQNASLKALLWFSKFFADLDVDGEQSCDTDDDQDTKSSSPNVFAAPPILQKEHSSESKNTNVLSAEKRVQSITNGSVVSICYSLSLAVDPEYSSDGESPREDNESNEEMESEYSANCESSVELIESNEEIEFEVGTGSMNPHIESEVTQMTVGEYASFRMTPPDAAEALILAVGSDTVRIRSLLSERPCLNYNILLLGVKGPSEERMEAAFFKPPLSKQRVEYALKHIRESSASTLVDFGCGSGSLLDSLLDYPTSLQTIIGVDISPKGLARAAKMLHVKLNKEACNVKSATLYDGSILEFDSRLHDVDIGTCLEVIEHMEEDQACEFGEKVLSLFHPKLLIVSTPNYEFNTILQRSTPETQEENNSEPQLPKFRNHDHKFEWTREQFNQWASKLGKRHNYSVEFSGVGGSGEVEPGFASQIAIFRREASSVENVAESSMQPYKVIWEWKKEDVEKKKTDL
T3 sequence 2: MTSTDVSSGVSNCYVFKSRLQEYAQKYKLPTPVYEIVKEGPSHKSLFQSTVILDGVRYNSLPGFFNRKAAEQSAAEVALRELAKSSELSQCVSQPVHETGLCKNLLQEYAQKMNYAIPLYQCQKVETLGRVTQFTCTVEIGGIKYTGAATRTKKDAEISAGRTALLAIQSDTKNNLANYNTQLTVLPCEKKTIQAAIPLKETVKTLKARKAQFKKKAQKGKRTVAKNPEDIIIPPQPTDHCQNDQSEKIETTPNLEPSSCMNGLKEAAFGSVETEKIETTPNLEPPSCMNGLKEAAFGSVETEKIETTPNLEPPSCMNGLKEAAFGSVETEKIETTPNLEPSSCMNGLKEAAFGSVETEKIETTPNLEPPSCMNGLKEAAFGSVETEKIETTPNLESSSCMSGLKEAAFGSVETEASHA

HEN1 Δ38-45 = biological target: T4, HEN1 Δ38-45 (Arabidopsis thaliana, UniProt Q9C5Q8 1-37+=G+46-942, internal_change); experiment: EMSA
T4 sequence: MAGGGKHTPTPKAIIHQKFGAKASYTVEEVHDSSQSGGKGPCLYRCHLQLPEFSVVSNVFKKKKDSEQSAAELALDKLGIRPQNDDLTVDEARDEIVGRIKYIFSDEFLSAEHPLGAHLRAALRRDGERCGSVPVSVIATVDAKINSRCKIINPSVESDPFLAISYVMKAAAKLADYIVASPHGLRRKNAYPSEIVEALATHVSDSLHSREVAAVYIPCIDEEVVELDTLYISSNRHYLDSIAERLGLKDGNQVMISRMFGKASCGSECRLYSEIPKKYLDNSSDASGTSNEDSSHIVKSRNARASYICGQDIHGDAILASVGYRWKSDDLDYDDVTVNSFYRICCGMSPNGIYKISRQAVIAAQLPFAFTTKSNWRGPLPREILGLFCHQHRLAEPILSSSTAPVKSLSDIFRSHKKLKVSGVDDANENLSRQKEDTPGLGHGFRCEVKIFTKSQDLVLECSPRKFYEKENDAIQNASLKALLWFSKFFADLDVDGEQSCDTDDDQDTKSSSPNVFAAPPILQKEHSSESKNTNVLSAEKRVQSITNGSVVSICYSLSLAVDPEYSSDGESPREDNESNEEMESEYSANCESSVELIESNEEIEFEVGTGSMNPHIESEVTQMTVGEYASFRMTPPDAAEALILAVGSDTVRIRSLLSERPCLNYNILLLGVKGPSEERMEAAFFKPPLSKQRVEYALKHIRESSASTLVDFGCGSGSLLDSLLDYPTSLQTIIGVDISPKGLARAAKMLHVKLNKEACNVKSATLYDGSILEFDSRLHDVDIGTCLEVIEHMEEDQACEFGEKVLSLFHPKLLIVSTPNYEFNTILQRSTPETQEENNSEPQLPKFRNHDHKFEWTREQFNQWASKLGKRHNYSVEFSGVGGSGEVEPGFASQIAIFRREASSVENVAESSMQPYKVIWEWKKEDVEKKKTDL

HEN1 wt = biological target: T5, HEN1 wt (Arabidopsis thaliana, UniProt Q9C5Q8 1-942); experiment: EMSA
T5 sequence: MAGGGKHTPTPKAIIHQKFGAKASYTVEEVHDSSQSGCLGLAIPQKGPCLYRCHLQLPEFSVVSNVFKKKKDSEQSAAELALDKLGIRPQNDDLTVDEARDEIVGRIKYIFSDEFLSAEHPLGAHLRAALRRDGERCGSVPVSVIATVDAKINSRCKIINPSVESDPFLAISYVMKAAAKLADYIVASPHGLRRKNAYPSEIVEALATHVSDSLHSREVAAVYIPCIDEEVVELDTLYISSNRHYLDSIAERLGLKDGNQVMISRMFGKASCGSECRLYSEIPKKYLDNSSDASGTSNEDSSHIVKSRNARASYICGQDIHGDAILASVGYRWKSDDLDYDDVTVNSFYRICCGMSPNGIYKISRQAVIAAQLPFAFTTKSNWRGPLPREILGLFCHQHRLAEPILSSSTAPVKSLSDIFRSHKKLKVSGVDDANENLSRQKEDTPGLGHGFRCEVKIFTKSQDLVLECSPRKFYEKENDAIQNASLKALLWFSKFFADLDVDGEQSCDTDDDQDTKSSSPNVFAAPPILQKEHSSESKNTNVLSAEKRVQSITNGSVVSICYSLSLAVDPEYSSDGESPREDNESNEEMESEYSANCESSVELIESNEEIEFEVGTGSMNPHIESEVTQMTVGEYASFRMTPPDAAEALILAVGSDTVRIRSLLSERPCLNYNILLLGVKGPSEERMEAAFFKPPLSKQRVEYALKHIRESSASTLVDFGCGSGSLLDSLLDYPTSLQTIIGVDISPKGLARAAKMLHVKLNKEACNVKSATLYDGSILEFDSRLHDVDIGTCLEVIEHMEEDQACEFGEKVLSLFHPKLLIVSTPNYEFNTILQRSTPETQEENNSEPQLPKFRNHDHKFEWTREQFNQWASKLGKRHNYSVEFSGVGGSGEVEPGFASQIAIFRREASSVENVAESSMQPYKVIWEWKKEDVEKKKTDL

HEN1-RHK389,397,477AAA [2] = biological target: T1, HEN1-RHK389,397,477AAA; experiment: EMSA; remark: listed apart in the source
[3] = biological target: T6, HEN1-R^1LR^2 (His-tagged, residues 1–519) (Arabidopsis thaliana, UniProt Q9C5Q8 1-519); experiment: pull-down
T6 sequence (looked up): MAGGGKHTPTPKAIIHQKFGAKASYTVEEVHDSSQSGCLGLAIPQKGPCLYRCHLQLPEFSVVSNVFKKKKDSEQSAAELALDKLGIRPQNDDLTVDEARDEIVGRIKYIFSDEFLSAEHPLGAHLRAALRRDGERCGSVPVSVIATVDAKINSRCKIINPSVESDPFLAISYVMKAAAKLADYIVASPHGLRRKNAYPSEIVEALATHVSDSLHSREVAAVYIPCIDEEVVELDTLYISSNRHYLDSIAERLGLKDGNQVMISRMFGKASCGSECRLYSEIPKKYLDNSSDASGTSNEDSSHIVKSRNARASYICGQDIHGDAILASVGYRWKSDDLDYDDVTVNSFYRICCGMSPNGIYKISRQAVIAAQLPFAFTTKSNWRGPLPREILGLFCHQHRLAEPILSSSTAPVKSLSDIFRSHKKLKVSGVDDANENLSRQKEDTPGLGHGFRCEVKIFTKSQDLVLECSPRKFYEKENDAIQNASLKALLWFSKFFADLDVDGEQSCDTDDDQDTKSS

B1: siR173/siR173* (dsRNA)
RNA 1: UUAACGCUUGCAGAGAGAAUCAC
RNA 2: GAUUCUCUCUGCAAGCGUUAAAG
With B1 the Kd (HEN1-RHK389,397,477AAA [1]) was 293 ± 27 nM, the binding result (HYL1) was “binds” and the binding result (HEN1 wt;HYL1) was “binds”.

B2: miR173CH3/miR173*CH3 (dsRNA)
RNA 1: UUCGCUUGCAGAGAGAAAUCAC
RNA 2: GAUUCUCUGUGUAAGCGAAAG
modifications: 2'-O-methyl on 3'-terminal nucleotide of both strands
For B2, the Kd (HEN1 Δ38-45) was 2.1 ± 0.1 nM, the Kd (HEN1 wt) was 7.2 ± 0.1 nM and the binding result (HEN1-RHK389,397,477AAA [2]) was “no binding”.

B3: GST-HYL1 (GST-fused full-length HYL1) (natural protein, UniProt O04492 1-419, looked up)
chain: MTSTDVSSGVSNCYVFKSRLQEYAQKYKLPTPVYEIVKEGPSHKSLFQSTVILDGVRYNSLPGFFNRKAAEQSAAEVALRELAKSSELSQCVSQPVHETGLCKNLLQEYAQKMNYAIPLYQCQKVETLGRVTQFTCTVEIGGIKYTGAATRTKKDAEISAGRTALLAIQSDTKNNLANYNTQLTVLPCEKKTIQAAIPLKETVKTLKARKAQFKKKAQKGKRTVAKNPEDIIIPPQPTDHCQNDQSEKIETTPNLEPSSCMNGLKEAAFGSVETEKIETTPNLEPPSCMNGLKEAAFGSVETEKIETTPNLEPPSCMNGLKEAAFGSVETEKIETTPNLEPSSCMNGLKEAAFGSVETEKIETTPNLEPPSCMNGLKEAAFGSVETEKIETTPNLESSSCMSGLKEAAFGSVETEASHA
B3: binds [3].
